Source: PMC11154709, “4S-fluorination of ProB29 in insulin lispro slows fibril formation” (The Journal of Biological Chemistry, 2024)

Assay: Far-UV circular dichroism (secondary structure)
Format: physicochemical
Conditions: 60 μM; statement in discussion of CD spectra
Description: Figure 2 Biological activity and CD spectroscopy of lispro variants.A, lispros were injected subcutaneously into diabetic mice, and blood glucose was measured over time after injection. The data presented here represent the mean ± SD of 3 to 6 biological replicates. B–E, far-UV circular dichroism spectra (60 μM lispro in […] phosphate buffer, pH 8.0). […] 4R-F, 4R-fluoroproline; 4S-F, 4S-fluoroproline.
The secondary structure of each insulin lispro variant was probed by circular dichroism spectroscopy. […] All lispro samples were further analyzed by analytical ultracentrifugation (Fig. S3). To determine the dissociation constant of each variant, we fit the data to a reversible monomer-dimer equilibrium ([29]). […]
Circular dichroism spectroscopy:
Equilibrium measurements: The circular dichroism spectra of insulin or lispro samples (60 µM in
100 mM sodium phosphate, pH 8.0) were measured at 25°C in 1 mm quartz cuvettes using a step
size of 0.5 nm and averaging time of 1 s on an Aviv Model 430 Circular Dichroism
Spectrophotom eter. A reference buffer spectrum was subtracted from each sample spectrum. […]
Analytical ultracentrifugation: […]

human insulin: 5.8 kDa peptide hormone composed of two disulfide-linked chains (A and B)
oligomeric state at 60 μM: exists as a dimer at 60 μM
